Test results published in US7025971 (WASHINGTON UNIVERSITY, dated 2006).
Changes are numbered by the printed parent chain. Where no end group is shown, it is not given here.

T1: PapD Arg-8-Gly (E. coli, UniProt P15319 22-239)
T1 construct: also called R8G; pR8G
T1 sequence: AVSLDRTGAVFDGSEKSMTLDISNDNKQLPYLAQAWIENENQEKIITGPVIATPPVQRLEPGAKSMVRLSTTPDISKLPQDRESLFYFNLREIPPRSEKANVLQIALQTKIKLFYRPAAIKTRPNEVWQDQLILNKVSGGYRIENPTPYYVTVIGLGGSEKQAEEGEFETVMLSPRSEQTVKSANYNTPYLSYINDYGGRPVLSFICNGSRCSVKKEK

T2: PapD Arg-8-Ala (E. coli, UniProt P15319 22-239)
T2 construct: also called R8A; pR8A
T2 sequence: T1 sequence with G8A

T3: PapD Lys-112-Ala (E. coli, UniProt P15319 22-239)
T3 sequence: T1 sequence with G8R, K112A

B1: PapD (wild type) (other)
chain: T1 sequence with G8R
notes: also called WT PapD; native PapD
B2: E1′-19′WT (peptide)
peptide: QNLIAGPFSATATLVASYS
notes: Water insoluble peptide; also called PapE peptide
B3: SEQ ID NO 19 (peptide)
peptide: LPATNTLMLSFDNVGG
notes: also called one of the other three second-site peptides of PapG (region 120′ to 156′)
B4: SEQ ID NO 21 (peptide)
peptide: YKMPYDQIKQLPATNT
notes: as for B3
B5: SEQ ID NO 22 (peptide)
peptide: QHHYYDLWQDHYKMPY
notes: as for B3
B6: G1′-8′WT (peptide)
peptide: MTMVLSFP
notes: also called PapG 8-mer peptide; octameric peptide
B7: G1′-19′WT (peptide)
peptide: GKRKPGELSGSMTMVLSFP
notes: Synthetic peptide; residues numbered from the C-terminus (Pro-1′); also called PapG 19-mer peptide; G-peptide
B8: G1′-19′SV (peptide)
peptide: GKRKPVELSGSMTMVLSSP
notes: Variant of G1′-19′WT with Phe-2′ to Ser and Gly-14′ to Val

Assays:
[1] = target: T4, modified PapG peptide, Ser-9′ substituted by Cys, labelled with 5-IAF (E. coli); assay: fluorescence intensity at 514 nm of the 5-IAF-labelled PapG peptide against increasing PapD concentration
T4 construct: also called labelled peptide; fluorescence labelled PapG analogue

[2] = target: T5, maltose binding protein (MBP) (UniProt P0AEX9 27-392 = MBP); assay: co-expression, amylose affinity chromatography
T5 construct: also called MBP control

PapD (wild type) [3] = target: B1; assay: ELISA, peptide coated on wells, PapD in solution, anti-PapD antiserum
PapD (wild type) [4] = target: B1; assay: ELISA, peptide coated on wells, PapD in solution
PapD (wild type) [5] = target: B1; assay: ELISA, peptide coated on wells, 200 pmol PapD, anti-PapD antiserum
PapD (wild type) [6] = target: B1; assay: ELISA, peptide coated on wells (2.5 pmol/50 µl), PapD in solution
PapD (wild type) [7] = target: B1; assay: ELISA, peptide coated on wells, anti-PapD antiserum
PapD (wild type) [8] = target: B1; assay: inhibition ELISA: PapD preincubated with peptide, MBP-G1′-140′-coated wells
PapD (wild type) [9] = target: B1; assay: soluble inhibition ELISA: 25-fold molar excess of peptide, 100 pmol/well PapD, G1′-19′WT-coated wells
PapD Arg-8-Gly = target: T1, PapD Arg-8-Gly; assay: native polyacrylamide gel mobility shift
PapD Arg-8-Ala = target: T2, PapD Arg-8-Ala; assay: native polyacrylamide gel mobility shift
PapD Lys-112-Ala = target: T3, PapD Lys-112-Ala; assay: native polyacrylamide gel mobility shift
PapD (wild type) [10] = target: B1; assay: soluble inhibition ELISA on G1′-19′WT-coated wells

For B1, the Kd [1] was 2500 nM and the binding result [2] was “no binding”.

B2: binds (PapD (wild type) [3]).

GILNGGDFQTTASMAMIYN (also called PapF peptide) [F1′-19′WT]: binds (PapD (wild type) [3]).

SGSMTMVLSFP (Water insoluble peptide) [G1′-11′WT]: binds (PapD (wild type) [4]).

KPGELSGSMTMVLSFP [G1′-16′WT]: binds (PapD (wild type) [4]).

DQIKQLPATNTLMLSF (also called site 2 peptide) [G125′-140′]: binds (PapD (wild type) [5]).

KKLEAGNYFAVLGFRVDYE (also called PapH peptide) [H1′-19′WT]: no binding (PapD (wild type) [6]).

KSVVPGDYEATATFELTYR (also called PapK peptide; K-peptide) [K1′-19′WT]: binds (PapD (wild type) [3]).

B3: no binding (tested: 200 pmol/50 ml of PapD) (PapD (wild type) [7]).

B4: no binding (tested: 200 pmol/50 ml of PapD) (PapD (wild type) [7]).

B5: no binding (tested: 200 pmol/50 ml of PapD) (PapD (wild type) [7]).

B6: binds (PapD (wild type) [8]).

For B7, the “% Inhibition” value (PapD (wild type) [9]) was 63%, the binding result (PapD Arg-8-Gly) was “no binding” and the binding result (PapD Arg-8-Ala) was “no binding”. B7: no binding (PapD Lys-112-Ala).

For TMVLSFP [G1′-7′WT], the “% Inhibition” value (PapD (wild type) [9]) was 49%.

With GKRKPGELSGSMTMVLSFP-NH2 (also called G1′-19′NH2) [G1′-19′amide] the “% Inhibition” value (PapD (wild type) [9]) was 56%.

B8: binds (PapD (wild type) [10]).

MVLSFP [G1′-6′]: binds (PapD (wild type) [8]).
